Data on 18 sequences can be found in the NTF2 design screens of Basanta et al. (2020).

The nature of the data set: protease stability score; higher = more stable; yeast display proteolysis, trypsin and chymotrypsin.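 Further: relative to predicted unfolded state with 0 unfolded-like and 1 meaning tenfold more protease.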
Sequence “SEDERQAEEASEQFLRSVETGDFDELSRLFDPDMKVVFNGKELHGRETYIRLERERRRDLGIKHVKVRVKDFRIINGRLHLHTELEFNVGDKSFTHESRYTWEKVNGRWVIRSVDID” showed a protease stability score of 2.15. The same measure for “SEDERQSEHMNRLIFESLETGDFHKLMRLMDPHARAVVDGREVHGMELLEEILKRIKDELGVTRIRTRIRTERTQGNKADNITEYEIGDKSFTVIIHNQKIDGRWVIHEVRFE”: 1.24; for “SEDERRFREALRIWFQLVRTGDEEELKHFFDPNVRIHIGDKTFHGMELVLRQIVEEAREIRVRSVTIHELDRQGEWIHMDVRIDEEINGRRIHHSVEIIALKINGKWFFHSIIIR”: 1.4; for “SEDERVAEELLRLLSEYLKTGDEQIVTELLDPHTKMIIDGQTHIGMDVWQMLRKHIRVKNSDVHDVKFVDGRMHLDMRVHGHVNGVDVTRRLHVHTHKINGRWHIKEIHIE”: 1.46. As to “SEDERVAFELVVIWSEALITGDEHTSIELLDPNTRIIFNGRDRHGRTFLQEWMKQLRVERIRIHIHHINLQGDKLKVFSELRFVGNVDGVRDEIKTEVVVFLDKIDGRWIVSHIDVH”, the protease stability score is 2.22. With “SEDERWLELLSRLLIEATRTGDWRELRHMLDPNVQLSFDGVQLHGRETIIEFLRHEERRLGVKHIDLHDRRIEYFDGRVILESELIIHYGDKEHRSEVRVYANKVNGRWFIEHIEIG” the figure was 2.13; with “SEDERYAEIADRIVRHSQETGDETDHMRMMDPDVRIEIGDKRYHGRELEHKLLKIWGVTRIEYDVRSIEVQGEKVRIDGVINFNGVELKIILYVLKFNGKWSYTKVEIQ”, 1.84. Consider “SEDESAARHVIERMSHNLMTGDEEDLSDQFDPHVRVDINGVEIIGREELLRWLREWLRHAGVSKFNVHIIPREIRLIGDFMEINGELRMNYNGKEERTETRIIVFKFNGKWSIERMRIH”, for which the protease stability score was determined as 1.72. With “SEDETEEHKFHNILSHAWETGDEEVLERLADPHVRFFYNGKEQVGRELMVELLRELLKRLGVDRIEIEIKDVRLQGDKARWHGDNVFNGRRVHVHISLVKVNGRWRIHHLDMG” the figure was 1.31; with “SEDETELKRWVERFERSMHTGDEEDLRQMADPNTRFEVGDKEIHGWDLWSKIHRKEREKLGVDNVTTNIKRLEMYGDKLRLESELIFNGQRLEVILIAEKIDGKWVVTSFHIH”, 0.129. The same measure for “SEDETHFKHMWKLILDTSITGNEELLKTLFDPHYRLSVDGVEFHGREALRYWLDRVDHVEDHRIKSFELQGDKIYMNGESKTQQGDKTHSHDIHIFTKKIDGQWVIHSLHVR”: 1.16; for “SEDETIALEFLKNWLRDLKTGNEEALSKLLDPNARMVFNGKEHHGREILLDIIKHFVERIDHFNSLHVHDIKIQGDKVHMDLRLIGHVDGREVEHRIHMVIIKYDGRWINQVEEIE”: 1.16.

The sequence “SEDETLAEEAVEEFEKHMETGDEDELIRLVDPHVKIHFNGRDIHGWKWIHVFLRDLGVDVKRIHVKDIEVFNGVVLLRGEFRFRFNGQDFSKDVENIIVKVDGRWFHHEIRIR” registered a protease stability score of 1.85. The same measure for “SEDETLMRHLVQLFIRREATGDWKKLDELFDPNVRIDINGVEYHGREDWLKHYEDLLKRIKNVRIEIDDQHMEVVGDFIHYDLHGTLEVNGRNIRMQIIIHIRKIDGKWLIEEQIIIIR”: 1.4. The sequence “SEDEWWARYVTKLLIHSMKTGDEDLLHELADPSTKLDVGDKRYHGREEFRRLMRELRERADHLTISIKHIEVQGDKVDLDMHIRLEYGDKFIELRVHIHVEKVNGQWRLREREER” had a protease stability score of 0.879. In turn, “SEDFHRIFHMLELIIRAWITGDEELLEKLADPHVRIDIDGVDIVGMELVSTFLHEIRFDLKQIRFKDIHVVNGRIRLHGESDVHVQIGDKEYEIRSEEEWIVTKVNGQWRLTEVRYL” registered a protease stability score of 2.08.

On to “SEDHDLVREVARLYIDAVKTGDEDLIRFLFDPHVRSEINGVQLHGWEEVFRFWQELRVHHIDLHSVHVEFQGDKAINRNEVHYNGEYGDKRNRYRLDLRIILHKIDGRWIVEEVHLITD”, for which the protease stability score is 1.45.

Regarding “SEDHDTDRHIMDLILRDVFTGDEEEFTRLADPNVKHIDENHFSVGWENVLEMLRFWEDEARMTDIKIHDLEIQGDKIVSHVHIDGEVNGKRRELEVIIYILKVDGKWHLEYFEVR”, the protease stability score stood at 2.2.
